This note sets out measurements from patent US20210040187A1 (INSTITUT PASTEUR, published 2021).

This assay addresses T1, acetylcholine receptor alpha 7 sub-unit (AchR alpha7) (UniProt P36544 23-502).
T1 construct: whole, on cells
Kind of assay: flow cytometry on AchR alpha7-expressing HEK293 cells, 30 min at 4 C. For orientation: Flow cytometry measures light scatter and fluorescence of single cells or particles in a stream.

T1 sequence (P36544 23-502): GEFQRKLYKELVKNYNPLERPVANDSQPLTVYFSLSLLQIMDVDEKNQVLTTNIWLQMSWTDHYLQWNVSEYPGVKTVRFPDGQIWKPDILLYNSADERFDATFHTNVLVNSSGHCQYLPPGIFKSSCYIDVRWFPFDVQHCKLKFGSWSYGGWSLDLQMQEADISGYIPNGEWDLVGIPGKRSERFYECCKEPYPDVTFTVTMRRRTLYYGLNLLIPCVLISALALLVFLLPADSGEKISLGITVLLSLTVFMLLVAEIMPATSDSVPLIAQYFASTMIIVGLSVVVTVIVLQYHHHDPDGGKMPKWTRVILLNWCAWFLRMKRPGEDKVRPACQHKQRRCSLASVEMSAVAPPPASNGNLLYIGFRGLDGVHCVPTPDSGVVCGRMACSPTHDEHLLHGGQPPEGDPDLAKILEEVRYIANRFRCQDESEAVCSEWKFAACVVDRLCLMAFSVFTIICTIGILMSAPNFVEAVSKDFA

B1: VHH2 (MA peptide, VHH A12, StrepTag, NV; lacking the RDP1 sequence) (VHH)
chain: MAEVQLQASGGGLAQPGGSLRLSVTVSGSIDVINNMAWYRQAPGNARELVATITSGFSTNYASSVKGRFTISRDNAKKAVYLQMNSLKPEDTADYYSKVHLIRLGAARAYDYWGQGTQVTVSGGGSAWSHPQFEKAAARRVNRSEPTQHNLRGTGREVSVTPQSGKIISSWEVHGQQTRL
For the molecule B1, the binding result is recorded as “no binding (tested: 20 pg)”.
